B1: FBXO39 (parent)
chain: PSRVHASEVESAVWYVKKFGRYLE

Variants of: B1
Test: protein stability index of a GFP-peptide fusion (GPS, HEK-293T) (PSI 1-6); higher = more stable
Conditions: c terminus: a fixed tail appended
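Further: lentivirally expressed fusions sorted by FACS into six bins by GFP to DsRed ratio, PSI derived from sequencing read proportions per bin multiplied by bin number.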

Protein stability index, by site and new letter:
V16: R 3.17 | N 3.18 | H 3.32 | T 2.43 | E 2.96 | W 2.27 | M 2.65 | I 1.72 | S 3.08 | F 1.83 | C 2.65 | L 1.87 | D 3.18 | A 2.4 | K 3.01 | Q 2.5 | P 2.54 | G 2.81 | Y 2.44
W14: Q 2.87 | H 3.44 | F 1.73 | L 2.32 | I 2.38 | M 3.3 | E 2.8 | C 3.17 | Y 2.18 | K 2.67 | R 2.58 | P 2.96 | T 3.68 | S 3.22 | N 3.68 | A 2.96 | V 2.64 | D 3.84 | G 2.89
Y15: S 2.4 | T 2.09 | L 2.34 | G 2.84 | N 3.31 | V 1.41 | P 2.61 | H 2.65 | E 2.45 | A 2.07 | D 3.73 | F 1.42 | R 2.21 | Q 2.74 | W 1.15 | M 2.9 | K 2.53 | I 1.58 | C 1.74
V9: K 1.92 | N 2.56 | Q 2.35 | M 1.92 | L 1.83 | P 2.33 | Y 1.94 | S 2.62 | W 1.61 | T 2.33 | R 2.34
A12: Q 3.27 | P 2.25 | I 2.34 | L 2.08 | G 2.02 | V 1.29 | D 2.13 | K 2 | N 3.01 | Y 1.65 | W 2.98 | C 1.49 | E 3.02 | H 2.83 | R 2.54 | S 2.18 | M 2.16 | T 2.08 | F 1.28
V13: D 2.9 | Y 1.43 | M 2.13 | S 2.57 | N 3.09 | H 2.72 | R 2.17 | C 1.95 | G 2.4 | A 2.44 | E 2.96 | I 1.61 | W 1.6 | K 1.78 | T 1.96 | F 1.45 | L 2.5 | Q 2.73 | P 3.59
S11: F 1.74 | G 1.84 | M 2.17 | K 2.91 | H 2.08 | V 1.57 | A 2.03 | L 1.99 | Y 2.07 | Q 1.64 | I 2.1 | C 2.4 | P 1.95 | W 1.54 | R 2.07 | D 2.49 | N 1.97 | E 2.57 | T 2.03
K18: D 2.33 | A 1.65 | E 2.37 | F 1.95 | C 2.36
K17: S 2.84 | G 2.57 | N 2.82 | L 2.52 | C 1.34 | Y 2.66 | A 2 | E 2.35 | Q 2.27 | R 3.25 | I 2.39 | P 1.89 | M 1.91 | V 1.9 | F 1.87 | D 2.25 | H 2.1 | T 1.77 | W 1.61
E10: H 1.65 | R 2.37 | Y 2 | Q 2.17 | N 1.66 | D 1.84 | M 1.49 | I 1.85 | G 1.41 | C 1.99 | A 1.64 | F 2.31 | L 3.06 | S 2.51 | K 2.21 | P 2.04 | T 2.69 | V 1.54

From the supplement of paper PMC10567573
